In the Human Domainome abundance scans (Beltran et al. 2025) one finds abundance fitness data, which are given here for 36 variants.

First the molecules themselves.
B1: Far upstream element-binding protein 3, residues 75 to 150; numbered along this chain, Q96I24 (parent)
chain: RTVITEEFKVPDKMVGFIIGRGGEQISRIQAESGCKIQIASESSGIPERPCVLTGTPESIEQAKRLLGQIVDRCRN

± gives the uncertainty stated by the source.

The variants in this data set derive from B1. The data set can be described thus: abundance fitness (aPCA) (normalised: wild type 0, dead -1); higher = more abundant; growth selection in yeast, the domain comes from the species named. Conditions: Homo sapiens.
As to RTVITEEFKVPDMMVGFIIGRGGEQISRIQAESGCKIQIASESSGIPERPCVLTGTPESIEQAKRLLGQIVDRCRN, the abundance fitness was -0.207 ± 0.042.

Regarding RTVITEEFKVPDLMVGFIIGRGGEQISRIQAESGCKIQIASESSGIPERPCVLTGTPESIEQAKRLLGQIVDRCRN, the abundance fitness is -0.198 ± 0.032.

As for RTVITEEFKVPDSMVGFIIGRGGEQISRIQAESGCKIQIASESSGIPERPCVLTGTPESIEQAKRLLGQIVDRCRN, the abundance fitness is -0.018 ± 0.031.

As for RTVITEEFKVCDKMVGFIIGRGGEQISRIQAESGCKIQIASESSGIPERPCVLTGTPESIEQAKRLLGQIVDRCRN, the abundance fitness was -0.239 ± 0.048.

Consider RTVITEEFKVGDKMVGFIIGRGGEQISRIQAESGCKIQIASESSGIPERPCVLTGTPESIEQAKRLLGQIVDRCRN, for which the abundance fitness was -0.254 ± 0.031.

For the variant RTVITEEFKVHDKMVGFIIGRGGEQISRIQAESGCKIQIASESSGIPERPCVLTGTPESIEQAKRLLGQIVDRCRN, the abundance fitness was -0.217 ± 0.066.

RTVITEEFKVFDKMVGFIIGRGGEQISRIQAESGCKIQIASESSGIPERPCVLTGTPESIEQAKRLLGQIVDRCRN: the abundance fitness was -0.422 ± 0.076.

Take RTVITEEFKVEDKMVGFIIGRGGEQISRIQAESGCKIQIASESSGIPERPCVLTGTPESIEQAKRLLGQIVDRCRN: the abundance fitness is -0.109 ± 0.041.

RTVITEEFKVRDKMVGFIIGRGGEQISRIQAESGCKIQIASESSGIPERPCVLTGTPESIEQAKRLLGQIVDRCRN: the abundance fitness was -0.288 ± 0.029.

On to RTVITEEFKVDDKMVGFIIGRGGEQISRIQAESGCKIQIASESSGIPERPCVLTGTPESIEQAKRLLGQIVDRCRN, for which the abundance fitness is -0.061 ± 0.056.

Take RTVITEEFKVYDKMVGFIIGRGGEQISRIQAESGCKIQIASESSGIPERPCVLTGTPESIEQAKRLLGQIVDRCRN: the abundance fitness was -0.303 ± 0.068.

RTVITEEFKVMDKMVGFIIGRGGEQISRIQAESGCKIQIASESSGIPERPCVLTGTPESIEQAKRLLGQIVDRCRN: the abundance fitness was -0.259 ± 0.043.

For the variant RTVITEEFKVLDKMVGFIIGRGGEQISRIQAESGCKIQIASESSGIPERPCVLTGTPESIEQAKRLLGQIVDRCRN, the abundance fitness was -0.236 ± 0.036.

Take RTVITEEFKVIDKMVGFIIGRGGEQISRIQAESGCKIQIASESSGIPERPCVLTGTPESIEQAKRLLGQIVDRCRN: the abundance fitness is -0.297 ± 0.081.

Turning to RTVITEEFKVQDKMVGFIIGRGGEQISRIQAESGCKIQIASESSGIPERPCVLTGTPESIEQAKRLLGQIVDRCRN, the abundance fitness is -0.235 ± 0.04.

For the variant RTVITEEFKVTDKMVGFIIGRGGEQISRIQAESGCKIQIASESSGIPERPCVLTGTPESIEQAKRLLGQIVDRCRN, the abundance fitness was -0.136 ± 0.041.

On to RTVITEEFKVADKMVGFIIGRGGEQISRIQAESGCKIQIASESSGIPERPCVLTGTPESIEQAKRLLGQIVDRCRN, for which the abundance fitness was -0.219 ± 0.033.

In the case of RTVITEEFKVSDKMVGFIIGRGGEQISRIQAESGCKIQIASESSGIPERPCVLTGTPESIEQAKRLLGQIVDRCRN, the abundance fitness is -0.182 ± 0.037.

Turning to RTVITEEFKVKDKMVGFIIGRGGEQISRIQAESGCKIQIASESSGIPERPCVLTGTPESIEQAKRLLGQIVDRCRN, the abundance fitness is -0.298 ± 0.053.

Take RTVITEEFKFPDKMVGFIIGRGGEQISRIQAESGCKIQIASESSGIPERPCVLTGTPESIEQAKRLLGQIVDRCRN: the abundance fitness was -0.055 ± 0.057.

With RTVITEEFKQPDKMVGFIIGRGGEQISRIQAESGCKIQIASESSGIPERPCVLTGTPESIEQAKRLLGQIVDRCRN, the abundance fitness is -0.675 ± 0.047.

Regarding RTVITEEFKMPDKMVGFIIGRGGEQISRIQAESGCKIQIASESSGIPERPCVLTGTPESIEQAKRLLGQIVDRCRN, the abundance fitness is -0.122 ± 0.039.

RTVITEEFKPPDKMVGFIIGRGGEQISRIQAESGCKIQIASESSGIPERPCVLTGTPESIEQAKRLLGQIVDRCRN: the abundance fitness is -0.514 ± 0.044.

As for RTVITEEFKIPDKMVGFIIGRGGEQISRIQAESGCKIQIASESSGIPERPCVLTGTPESIEQAKRLLGQIVDRCRN, the abundance fitness was -0.036 ± 0.056.

Regarding RTVITEEFKEPDKMVGFIIGRGGEQISRIQAESGCKIQIASESSGIPERPCVLTGTPESIEQAKRLLGQIVDRCRN, the abundance fitness was -0.631 ± 0.039.

For RTVITEEFKYPDKMVGFIIGRGGEQISRIQAESGCKIQIASESSGIPERPCVLTGTPESIEQAKRLLGQIVDRCRN, the abundance fitness was -0.291 ± 0.059.

As to RTVITEEFKGPDKMVGFIIGRGGEQISRIQAESGCKIQIASESSGIPERPCVLTGTPESIEQAKRLLGQIVDRCRN, the abundance fitness was -0.634 ± 0.03.

RTVITEEFKNPDKMVGFIIGRGGEQISRIQAESGCKIQIASESSGIPERPCVLTGTPESIEQAKRLLGQIVDRCRN: the abundance fitness was -0.612 ± 0.081.

For the variant RTVITEEFKWPDKMVGFIIGRGGEQISRIQAESGCKIQIASESSGIPERPCVLTGTPESIEQAKRLLGQIVDRCRN, the abundance fitness was -0.295 ± 0.032.

RTVITEEFKDPDKMVGFIIGRGGEQISRIQAESGCKIQIASESSGIPERPCVLTGTPESIEQAKRLLGQIVDRCRN: the abundance fitness was -0.479 ± 0.05.

With RTVITEEFKHPDKMVGFIIGRGGEQISRIQAESGCKIQIASESSGIPERPCVLTGTPESIEQAKRLLGQIVDRCRN, the abundance fitness is -0.4 ± 0.053.

Consider RTVITEEFKLPDKMVGFIIGRGGEQISRIQAESGCKIQIASESSGIPERPCVLTGTPESIEQAKRLLGQIVDRCRN, for which the abundance fitness is -0.036 ± 0.029.

With RTVITEEFKTPDKMVGFIIGRGGEQISRIQAESGCKIQIASESSGIPERPCVLTGTPESIEQAKRLLGQIVDRCRN, the abundance fitness was -0.407 ± 0.038.

As to RTVITEEFKRPDKMVGFIIGRGGEQISRIQAESGCKIQIASESSGIPERPCVLTGTPESIEQAKRLLGQIVDRCRN, the abundance fitness was -0.8 ± 0.035.

Consider RTVITEEFKAPDKMVGFIIGRGGEQISRIQAESGCKIQIASESSGIPERPCVLTGTPESIEQAKRLLGQIVDRCRN, for which the abundance fitness is -0.287 ± 0.034.

For the variant RTVITEEFKKPDKMVGFIIGRGGEQISRIQAESGCKIQIASESSGIPERPCVLTGTPESIEQAKRLLGQIVDRCRN, the abundance fitness is -0.794 ± 0.063.
